Laboratory results taken from patent US12564637B2, “Nucleic acid mazzocchio and methods of making and use thereof” (The University of Hong Kong, priority 2019, dated 2026).

What was measured:
[1] = Diameter of the nanostructure by transmission electron microscopy (TEM); assay type: physicochemical; conditions: images analyzed by ImageJ
Description: TEM was used to characterize the final DNA mazzocchio nanostructure. 5 μl of DNA mazzocchio samples were first adsorbed onto glow-discharged 400 mesh copper grids (Ted Pella, Inc.) for 1 minute. This was followed by staining with 2% uranyl acetate for 1 minute. The stained samples were washed twice by distilled water to remove excess uranyl acetate. Stained DNA mazzocchio samples on the grid were visualized using a Philips CM 100 Transmission Electron Microscope with 100 kV operating voltage. Electron photomicrographs of DNA mazzocchio were captured with magnification from 73,000×-105,000× on different positions of the grid. To experimentally determine the diameter of the DNA mazzocchio, images were analyzed by the ImageJ software.

[2] = Doxorubicin loading/encapsulation by quenching of doxorubicin fluorescence; assay type: binding
Description: The DNA mazzocchio (from Example 1) and DNA tetrahedron nanostructures were made through an annealing process. The multiple single-stranded DNAs were mixed in equal ratio and placed in a thermal cycler to heat up (95° C. for 5 minutes) followed by slow cooling (overnight down to 20° C.).
10 μM of doxorubicin was incubated with various concentrations of the DNA mazzocchio and DNA tetrahedron nanostructures (as shown on the X-axis of FIG. 2) for 1 hour at room temperature. Then, 13 μl of mixture was placed in a 384-well microtiter plate and inserted in the plate reader. The fluorescence was measured using a plate reader (Varioskan Flash by Thermo Fisher Scientific) at the following parameters: Excitation 488 nm/Emission 595 nm; bandwidth 12 nm; measurement time: 500 ms. Error bars were obtained as standard error from triplicate experiments.
Since the intercalation of doxorubicin inhibited its fluorescence, the loading efficiency could be determined by the half maximal inhibitory concentration (IC50).

B1: mazzocchio: DNA nanostructure of 16 hexagonal subunits, each composed of 12 single-stranded DNA oligonucleotides (SEQ ID NOs: 1-12) (nucleic acid)
chain 1: GATAGGCCGAGATCTGAGGATGCTGGCTCACGCCATTGGCTCGCGACCCCGTCCGCTAGACGTTATGCACAAGGCGTTGTCATTAGATGCTTAGGTGCTCAGGCCGTAATGAGGCCGCTTGGCTGCGTTCCTCCGCCGCTTGGGAACAGCCCCGC
chain 2: TCCAGCTCTGCGGACGGGGTCGCGAGCCATTCGAGGGCT
chain 3: TCGCCTGTAATACGCCTTGTGCATAACGTCTTGCCAACCC
chain 4: TGCCCGTACCCTGGTGCACCTAAGCATCTAATGACTCTGCGGAAGA
chain 5: TACCCCACTTTAGCGATAGCGGCCTCATTACGGCCTGTGCTACCCGTACGGA
chain 6: ATCAGTACGATTGGCGTGAGCCAGCATCCTCTAGCGGCGGAGGAACGCAGCCTAGGCGGAACTCTTCGG
chain 7: TCGCTAAAGTGGGGTACCGAAGAGTTCCGCCT
chain 8: GATCTCGGCCTATCGCGGGGCTGTTCCC
chain 9: TCGTACTGATGAGCCCTCGA
chain 10: GAGCTGGAGGGTTGGC
chain 11: TTACAGGCGATCTTCCGCAG
chain 12: CCAGGGTACGGGCATCCGTACGGGTAGC
modifications: 16 hexagonal subunits assembled; Synthetic sequence - strand 1; Synthetic sequence - strand 2; Synthetic sequence - strand 3; Synthetic sequence - strand 4; Synthetic sequence - strand 5; Synthetic sequence - strand 6; Synthetic sequence - strand 7; Synthetic sequence - strand 8; Synthetic sequence - strand 9; Synthetic sequence - strand 10; Synthetic sequence - strand 11; Synthetic sequence - strand 12
average diameter of the nanostructures [1]: 49.30±10.37 nm | IC50 ([2]; 10 μM doxorubicin, 1 hour at room temperature, Ex 488 nm/Em 595 nm, triplicate, read-out: half maximal inhibitory concentration (IC50) of doxorubicin fluorescence (loading efficiency)): 480 nM | effectiveness in carrying doxorubicin as compared to the tetrahedron ([2]; comparison of the IC50 values): three times more effective
